Target: insulin (UniProt P01308;P01308 25-54;90-110)
Assay: circular dichroism; 20 uM aptamer, 100 nM insulin; G4 spectrum (min 245 nm, max 275 nm) after interaction with insulin; Binding buffer 20 mM Tris-HCl, 140 mM NaCl, 5 mM KCl, 1 mM CaCl2, 1 mM MgCl2, pH 7.4, room temperature, 40-60 min; then hemin in DMSO 1 h and TMB-H2O2; random N30 control is a pool and not listed
Details: protein: commercial, copies: 1;1, label: 5' biotin

Chain of insulin (P01308 25-54, chain 1 of 2): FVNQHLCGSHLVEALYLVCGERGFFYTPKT
Chain of insulin (P01308 90-110, chain 2 of 2): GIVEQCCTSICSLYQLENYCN

B1: G-quadruplex insulin aptamer (G-rich aptamer) (structured_DNA)
DNA: GGTGGTGGGGGGGGTTGGTAGGGTGTCTTC
Q: Does B1 bind?
A: binds
